From patent US20160106861A1, “AXL ANTIBODY-DRUG CONJUGATE AND ITS USE FOR THE TREATMENT OF CANCER” (PIERRE FABRE MEDICAMENT, priority 2013, published 2016)

Molecular target: T1, rhAxl-Fc protein (Homo sapiens, UniProt P30530)
T1 construct: purchased R and D Systems 154AL/CF
T1 sequence (P30530 26-451 limits assumed): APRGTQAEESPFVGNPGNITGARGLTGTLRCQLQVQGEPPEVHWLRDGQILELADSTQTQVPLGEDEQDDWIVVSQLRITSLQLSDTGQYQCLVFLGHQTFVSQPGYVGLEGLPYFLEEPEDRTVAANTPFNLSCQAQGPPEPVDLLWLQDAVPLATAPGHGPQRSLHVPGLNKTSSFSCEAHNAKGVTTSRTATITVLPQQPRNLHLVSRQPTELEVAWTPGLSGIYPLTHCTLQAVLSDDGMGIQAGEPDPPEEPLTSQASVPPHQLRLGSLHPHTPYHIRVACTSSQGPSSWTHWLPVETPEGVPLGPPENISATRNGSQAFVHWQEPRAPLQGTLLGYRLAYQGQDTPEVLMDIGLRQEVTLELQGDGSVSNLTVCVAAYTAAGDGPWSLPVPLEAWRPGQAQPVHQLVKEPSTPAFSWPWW
Assay: ELISA with coated 1613F12 and a range of rhAxl-Fc protein (hz vs. m)
Assay type: binding
Details: FIG. 3
Description: In this assay, 96 well plates (Immulon II, Thermo Fisher) were coated with a 5 μg/ml of 1613F12 solution in 1×PBS, overnight at 4° C. After a saturation step, a range of rh Axl-Fc protein (R and D Systems, ref: 154-AL) is incubated for 1 hour at 37° C. on the coated plates. For the revelation step, a biotinylated-Axl antibody (in house product) was added at 0.85 μg/ml for 1 hour at 37° C. This Axl antibody belongs to a distinct epitopic group. Then an avidin-horseradish peroxidase solution at 1/2000° in diluent buffer is added to the wells. Then the TMB substrate solution is added for 5 min. After addition of the peroxydase stop solution, the absorbance at […] was measured with a microplate reader.

B1: hz1613F12: humanized Axl antibody 1613F12 (antibody, V domains shown)
VH: QVQLVQSGAEVKKPGASVKVSCKASGFNIRDTYMHWVRQAPGQGLEWMGRLDPANGHTKYAQKFQGRVTMTRDTSISTAYMELSRLRSDDTAVYYCARGAYYYGSSGLFYFDYWGQGTLVTVSS
VL: DVQMTQSPSSLSASVGDRVTITCRASKSISKYLAWYQQKPGKVPKLLIYSGSTLQSGVPSRFSGSGSGTDFTLTISSLQPEDVATYYCQQHHEYPLTFGGGTKVEIK
modifications: Hz1613F12 VH - Consensus 2; Hz1613F12 VL - Consensus 2
notes: humanized Axl antibody 1613F12
How did the “binding of rhAxl-Fc protein, murine versus humanized version” value turn out when B1 was run?
The value was “bind similarly the rhAxl-Fc protein”.
